Measurements published in patent US20190185550A1 (HEFEI LIFEON PHARMACEUTICAL, published 2019).

Tests used:
[1] = biological target: T1, recombinant ED-B domain of human fibronectin with six histidine tags at the carboxyl terminal (human, UniProt P02751 1266-1356); assay: ELISA, Scatchard assay method (Beatty), coated ED-B
T1 construct: domain: ED-B; also called ED-B antigen; independent ED-B domain
Method: The Scatchard assay method (Beatty, Beatty et al. 1987) is used for the affinity determination. 0.1 μg/μl ED-B antigen is diluted according to four concentration gradients of 1:1, 1:2, 1:4 and 1:8, enveloped in the ELISA plate, stored overnight at 4° C., and then blocked with 4% skimmed milk. The single-chain antibody diluted according to the concentration gradient of 1:3 is added with the original concentration of the antibody being 10 μg/ml. The antibody reacts under a room temperature for 1 hr, then reacts for 1 hr under the addition of a horseradish peroxidase-labeled rabbit-anti-human IgG antibody, and is stained by adding tetramethyl benzidine (TMB). When an appropriate color depth is reached, the staining is terminated by using 2M H₂SO₄, and the OD450 optical absorption value is determined.

[2] = biological target: T1, recombinant ED-B domain of human …; assay: SPR, BIAcore3000, ED-B amine-coupled on the chip
[3] = biological target: FN(789), recombinant fibronectin fragment of domains 7, 8 and 9 without the ED-B domain, with 6xHis tags (human, UniProt P02751-1 1173-1446, limits assumed); assay: ELISA on coated antigen, antibody B5 as primary antibody, HRP-labeled rabbit anti-human IgG as secondary antibody, OD450
Chain of FN(789), recombinant fibronectin fragment of domains 7, 8 and 9 without the ED-B domain, with 6xHis tags (P02751 other isoform, or with tags, fused parts or gaps limits assumed): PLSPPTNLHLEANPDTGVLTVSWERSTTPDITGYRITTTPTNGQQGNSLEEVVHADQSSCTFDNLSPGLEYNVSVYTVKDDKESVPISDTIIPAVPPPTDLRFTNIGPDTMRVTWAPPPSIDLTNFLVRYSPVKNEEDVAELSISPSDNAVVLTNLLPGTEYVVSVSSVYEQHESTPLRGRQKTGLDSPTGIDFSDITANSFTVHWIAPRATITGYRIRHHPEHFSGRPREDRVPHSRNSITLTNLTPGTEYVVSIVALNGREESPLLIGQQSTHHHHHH
Method: The plasmid is expressed in E. coli and then purified through a Ni-chelating column. The aforementioned three proteins are used as antigens and are blocked with milk. Then an ELISA detection test is conducted by using the antibody B5 as a primary antibody and using the horseradish peroxidase-labeled rabbit-anti-human IgG antibody as the secondary antibody, with the test results being shown in FIG. 2.

T1 sequence (P02751 other isoform, or with tags, fused parts or gaps limits assumed): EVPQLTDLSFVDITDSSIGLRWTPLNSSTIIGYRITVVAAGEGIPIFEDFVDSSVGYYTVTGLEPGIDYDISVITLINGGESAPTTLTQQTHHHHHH

B1: antibody L19 (antibody, V domains shown)
VH: EVQLLESGGGLVQPGGSLRLSCAASGFTFSSFSMSWVRQAPGKGLEWVSSISGSSGTTYYADSVKGRFTISRDNSKNTLYLQMNSLRAEDTAVYYCAKPFPYFDYWGQGTLVTVSS
VL: EIVLTQSPGTLSLSPGERATLSCRASQSVSSSYLAWYQQKPGQAPRLLIYYASSRATGIPDRFSGSGSGTDFTLTISRLEPEDFAVYYCQQTGRIPPTFGQGTKVEIK
Kd [1]: 6 nM
Kd [2]: 0.4 nM

B2: antibody B5 (humanized single-chain antibody against the ED-B domain, expressed as a fusion with the Fc of human IgG1) (Fc fusion)
scFv: EVQLLESGGGLVQPGGSLRLSCAASGFTFSSYAMSWVRQAPGKGLEWVSRISPSGSSTYYADSVKGRFTISRDNSKNTLYLQMNSLRAEDTAVYYCARHTAPLFDYWGQGTLVTVSSGGGGSGGGGSGGGGSSEIVLTQSPGTLSLSPGERATLSCRASQSVSSSYLAWYQQKPGQAPRLLIYKASNLATGIPDRFSGSGSGTDFTLTISRLEPEDFAVYYCQQGRHTPPTFGQGTKVEIK
notes: also called B5-IgG1Fc; single-chain antibody B5; not shown: Fc fragment of the constant region of human IgG1, fused in frame after the scFv (pCI-neo vector); limits and junction no
Kd [1]: 1.8 nM
binding result [3]: no binding
